Reference: the supplement of paper PMC7125110
± gives the standard error. Fewer inactive variants are shown than the library holds.

B1: glmS ribozyme (parent)
chain: AUAAAAGCGCCAGAACUACAGAAAUGUAGUUGACGAGGAGGAGGUUUAUCGAAUUUUCGGCGGAUGCCUCCAAA

How the values were obtained:
Settings in all cases: with glucosamine-6-phosphate
glucosamine-6-phosphate [1] = variants of: B1; test: self-cleavage kobs at 640 uM GlcN6P; higher = faster cleavage; RNA array
In short: (§1)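 On sequenced MiSeq chips, barcoded ribozyme variants were made in situ by E. coli RNA polymerase and followed at 37 °C through a hybridised Cy3 probe. Glucosamine-6-phosphate was flowed in at 40 μM to 10 mM in HEPES/KCl/Mg(OAc)2 buffer. Exponential fits to normalised per-tile medians gave kobs, and weighted Michaelis–Menten fits gave kcat and KM.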

glucosamine-6-phosphate [2] = variants of: B1; test: self-cleavage kobs at 2500 uM GlcN6P; higher = faster cleavage; RNA array
In short: as §1

glucosamine-6-phosphate [3] = variants of: B1; test: self-cleavage kobs at 10000 uM GlcN6P; higher = faster cleavage; RNA array
In short: as §1

Variant | self-cleavage kobs at 640 uM GlcN6P (glucosamine-6-phosphate [1]) [s⁻¹] | self-cleavage kobs at 2500 uM GlcN6P (glucosamine-6-phosphate [2]) [s⁻¹] | self-cleavage kobs at 10000 uM GlcN6P (glucosamine-6-phosphate [3]) [s⁻¹]
C11U A53U C70G | 0.000189 ± 5.3e-05 |  | 
G7A A39G A64C C71U | < 1e-05 | < 1e-05 | 
G35A C58A | < 1e-05 | < 1e-05 | 
A6U U54C C68G U69G | 0.00033 ± 9.7e-05 |  | 
A6U G44U U49G | < 1e-05 |  | 
G9U G29A U46A G51U C67U | < 1e-05 | < 1e-05 | 
A6G C58U U69A | 0.000521 ± 0.00019 |  | 
G43U U54G C58A C67U | < 1e-05 |  | 
G43A A53G G60U | < 1e-05 | < 1e-05 | 
C11U G32C C50G A52U | < 1e-05 |  | 
A33C U45C U47A A48G | < 1e-05 |  | 
U55A U56A | 0.00306 ± 0.00092 | 0.00346 ± 0.0013 | 0.0126 ± 0.0024
U55G U65C C70U | 0.00017 ± 3.7e-05 | 0.000458 ± 0.00012 | 
A42U U47A U54C | 3.85e-05 ± 9.6e-06 |  | 
A42U G44C A52C U57G U65A U69C | < 1e-05 | < 1e-05 | 
G43C U69G | < 1e-05 |  | < 1e-05
G7U G40A G59U | < 1e-05 |  | 
A14U U31C A39C | 7.42e-05 ± 1.4e-05 | 0.000324 ± 6.8e-05 | 0.000464 ± 6e-05
A14C A36U G38A U69A | 7.64e-05 ± 1.8e-05 |  | 
G62A G66C C67A | < 1e-05 |  | 
A36C G41A C50G C58G | < 1e-05 |  | 
C10G G40C C71G | < 1e-05 | < 1e-05 | 
G7C G9C A36G G51C | < 1e-05 |  | 

Variant | self-cleavage kobs at 640 uM GlcN6P (glucosamine-6-phosphate [1]) [s⁻¹] | self-cleavage kobs at 2500 uM GlcN6P (glucosamine-6-phosphate [2]) [s⁻¹] | self-cleavage kobs at 10000 uM GlcN6P (glucosamine-6-phosphate [3]) [s⁻¹]
A14G G29U U30G A33C C61G G66U | < 1e-05 | < 1e-05 | 
C34U G44C G63U A64C | < 1e-05 |  | 
G7C G38C A48C | < 1e-05 | < 1e-05 | 
C11G G43C U45C | < 1e-05 | < 1e-05 | 
G13C A48U A53U C61G | < 1e-05 |  | 
G13U A64G U65G | 8.37e-05 ± 3e-05 | 5.07e-05 ± 1.7e-05 | 
A33C G66C | < 1e-05 |  | 
C10A U54G U65C | < 1e-05 |  | 
G32A A33G C50A | < 1e-05 |  | < 1e-05
C10U U46A U49A G62A | < 1e-05 | < 1e-05 | 
A15C G37A A42G | 8.69e-05 ± 3e-05 | 0.000171 ± 4.6e-05 | 
U30G G37U U55C C58G | < 1e-05 |  | 
A39C G51C U56C C70A | < 1e-05 |  | 
U31G G35U A36G U47A A64G C68U C71G | 9.41e-05 ± 3.3e-05 |  | 
C11U G35U G44A | < 1e-05 | < 1e-05 | 
G9C U30A U49C U56G | < 1e-05 |  | 
C11U A48G C68U | < 1e-05 |  | 
U30C C67A C70G | 6.32e-05 ± 1.4e-05 |  | 
G37A C50U G51U | < 1e-05 | < 1e-05 | 
A53G G60A C61G | < 1e-05 |  | 
U54A G59U C68U C70G | < 1e-05 |  | 
G7U A36G G38U | < 1e-05 |  | 
U31G G38U U69A C71U | 0.000772 ± 0.0003 |  | 

Variant | self-cleavage kobs at 640 uM GlcN6P (glucosamine-6-phosphate [1]) [s⁻¹] | self-cleavage kobs at 2500 uM GlcN6P (glucosamine-6-phosphate [2]) [s⁻¹] | self-cleavage kobs at 10000 uM GlcN6P (glucosamine-6-phosphate [3]) [s⁻¹]
G40U G44U C68U | < 1e-05 |  | 
A12U C67G C70U | 0.000172 ± 3.8e-05 | 0.000623 ± 0.00017 | 
G38U G43U U46A A48U C61A C67G | < 1e-05 |  | 
G41A A48C A52U | < 1e-05 |  | 
A6U C8A U31G | < 1e-05 | < 1e-05 | 
C8G G38U C68A | < 1e-05 |  | 
G38A G62U G66C | < 1e-05 |  | 
G7C C16U G32C G43A C50U | < 1e-05 |  | 
C16U G32U C34G A53C | < 1e-05 | < 1e-05 | 
G9U G29C G41A | < 1e-05 | < 1e-05 | < 1e-05
C8A G35U C70G | 0.000526 ± 0.0002 |  | 7.27e-05 ± 2.4e-05
G40U U55A C71A | 0.00279 ± 0.00086 |  | 0.0227 ± 0.0049
G9U G35C A42U U45A C70A | < 1e-05 |  | 
A36U G41U U55A | < 1e-05 | < 1e-05 | 
A15G A36U U45G U46G A64G | < 1e-05 |  | 
G38A G40U U65C | < 1e-05 |  | 
G9C A12C | < 1e-05 | < 1e-05 | < 1e-05
A36C U54G G63A | < 1e-05 |  | 
A42C C61G C70A | < 1e-05 | < 1e-05 | < 1e-05
G13C A39C C61A C70U | < 1e-05 |  | 
C16U G59C G62U | < 1e-05 |  | 
G32U U55A C71A | 9.04e-05 ± 2.8e-05 | 8.28e-05 ± 3.5e-05 | 
A33C G41A A53U | < 1e-05 |  | 

Variant | self-cleavage kobs at 640 uM GlcN6P (glucosamine-6-phosphate [1]) [s⁻¹] | self-cleavage kobs at 2500 uM GlcN6P (glucosamine-6-phosphate [2]) [s⁻¹] | self-cleavage kobs at 10000 uM GlcN6P (glucosamine-6-phosphate [3]) [s⁻¹]
U30C C50G C61G | 0.000327 ± 0.00012 |  | 
A48U A53C C68G C71G | 9.77e-05 ± 3.4e-05 |  | 
A6G C16G G32A | < 1e-05 | < 1e-05 | 
U30A U31C A39U | 0.00038 ± 0.00011 | 0.000577 ± 0.00018 | 
G37U G38C U49G U56G | < 1e-05 |  | 
A15U A36C U56G U69A | 7.26e-05 ± 3.4e-05 |  | 
G7U G9C G29C A39G U46A A52U U55C C67G C70U | < 1e-05 | < 1e-05 | 
U57C C61U G63A | < 1e-05 | < 1e-05 | < 1e-05
A33U G43A A48U C61U C70U | < 1e-05 | < 1e-05 | 
C10A G63A U69A C71U | 0.000215 ± 6.3e-05 |  | 
G51U U56A G63U | < 1e-05 | < 1e-05 | 
C11U G43A A48U A53C C61U | < 1e-05 | < 1e-05 | 
A15U A36G G41U U47A | < 1e-05 |  | 
C10U G32A U49A | < 1e-05 |  | 
G38A G43U G51C | < 1e-05 | < 1e-05 | 
A6U C16U U54A | 4.1e-05 ± 1.3e-05 | 0.000121 ± 3e-05 | 
C10U G32C G35A | < 1e-05 | < 1e-05 | 
U56G U57G U65C | < 1e-05 | < 1e-05 | 
G29U U47A A64U | < 1e-05 |  | 
U31A U54A C68A | 6.98e-05 ± 2.6e-05 |  | 
G38C A48C | < 1e-05 | < 1e-05 | < 1e-05
G40A U45C C50A G60A C67A | < 1e-05 | < 1e-05 | 
A36C G37C U46A A48G C70G | < 1e-05 |  | 

Variant | self-cleavage kobs at 640 uM GlcN6P (glucosamine-6-phosphate [1]) [s⁻¹] | self-cleavage kobs at 2500 uM GlcN6P (glucosamine-6-phosphate [2]) [s⁻¹] | self-cleavage kobs at 10000 uM GlcN6P (glucosamine-6-phosphate [3]) [s⁻¹]
G32C G35U U46A C68G | < 1e-05 |  | 
G9U G32C C34G C58U C68G | 0.000182 ± 7.9e-05 |  | 
C34G U49A G66A | < 1e-05 |  | 
G40U C50A C67G | < 1e-05 |  | 
C34G C61G G62C | < 1e-05 |  | 
U31A A53G U65A C70A | 6.1e-05 ± 2.4e-05 |  | 
G32U G38C C68U | < 1e-05 |  | 
A53U G62U | < 1e-05 | < 1e-05 | < 1e-05
A14U G43C | < 1e-05 | < 1e-05 | < 1e-05
G13U U31C G41A | < 1e-05 |  | 
G35C A36C A42C G43C G51A | < 1e-05 | < 1e-05 | 
U46A U47C C70A | 9.01e-05 ± 2.2e-05 | 0.000206 ± 3.7e-05 | 
G9U C10G G13C A48C C50U | < 1e-05 | < 1e-05 | 
C10U A12C G40A | < 1e-05 | < 1e-05 | 
C10U G38U U57G C61G G66U | 0.000307 ± 9.3e-05 |  | 
A6U G32C C67G | < 1e-05 | < 1e-05 | 
G32A U49C C50G | < 1e-05 |  | 
C11A G37C U65G | < 1e-05 |  | 
G32A G40U A48U | < 1e-05 |  | 
U30G A42U C50A G60U | < 1e-05 |  | 
G43A A64U C67A | < 1e-05 |  | 
C10G C58G G62C | < 1e-05 |  | 
A6U G29A U31A G43C U46G C58G | < 1e-05 | < 1e-05 | 

Variant | self-cleavage kobs at 640 uM GlcN6P (glucosamine-6-phosphate [1]) [s⁻¹] | self-cleavage kobs at 2500 uM GlcN6P (glucosamine-6-phosphate [2]) [s⁻¹] | self-cleavage kobs at 10000 uM GlcN6P (glucosamine-6-phosphate [3]) [s⁻¹]
A15G U30A C67A C70U | 0.000654 ± 0.00016 | 9.99e-05 ± 4.6e-05 | 0.00115 ± 0.00026
G32C G35A A64C C70A | < 1e-05 | < 1e-05 | 
A6G A14U C16G U56A | < 1e-05 |  | 
A48U G59A C67U | < 1e-05 | < 1e-05 | 
G9U G51U C71U | < 1e-05 |  | 
G38U G41A U47C | < 1e-05 | < 1e-05 | 
C11G U45C U46C C61U | < 1e-05 | < 1e-05 | 
G35C G44C U45C A48G | < 1e-05 | < 1e-05 | 
A6G U31A A36G A48U | < 1e-05 |  | 
A36U G38A A52U C67G | 4.67e-05 ± 1.8e-05 | 4.17e-05 ± 2.1e-05 | 
G38U G43U U57C C70U | < 1e-05 |  | 
C8A G9A A15G A48C U57A G60A | < 1e-05 |  | 
A6G G37A U46A U54A | < 1e-05 |  | < 1e-05
G41C G63C A64U | < 1e-05 | < 1e-05 | 
C10U A39C G41A U46A | < 1e-05 | < 1e-05 | 
A6C A39U G41C A52U | < 1e-05 | < 1e-05 | 
U47C A52G G66A | 5.64e-05 ± 1.2e-05 | 0.000112 ± 2.4e-05 | 
G7C C34A A42C C71U | < 1e-05 |  | 
A15G A36U G41U C70U | < 1e-05 | < 1e-05 | 
G32U A33G G38A | < 1e-05 |  | 
